Measured values published in article PMC9893218.

Target: trastuzumab
Assay: SEC + native MS

## trastuzumab (antibody)
  stoichiometry N: 2
